In patent publication US20100041074A1 (published 2010):
Several values for one entry are separate records, joined by “and”; a condition that tells them apart may be missing. Equal values may be shown once.

Target: GST fused GRP78 protein (GST-GRP78) purified from E. coli (UniProt P11021 19-654)
Assay: ELISA

B1: toxin-labeled GD17 single-chain antibody (GD17scFv-PE40) (scFv)
scFv: MDHHHHHHHHHHKLQVQLQQSGAELARPGASVKLSCKASGYTFTSYWMHWVKQRPGQGLEWIGAIYPGDGDTRYTQKFKGKATLTADKSSSTAYMQLSSLASEDSAVYYCASGITAVADYWGQGTTLTVSSGGGGSGGGGSGGGGSDVVMTQTPLSLPVSLGDQASISCRSSQSLVHSNGNTYLHWYLQKPGQSPKLLIYKVSNRFSGVPDRFSGSGSGTDFTLKISRVEAEDLGVYFCSQSTHVPLTFGAGTKLELKEFGGAPEFPKPSTPPGSSGLEGGSLAALTAHQACHLPLETFTRHRQPRGWEQLEQCGYPVQRLVALYLAARLSWNQVDQVIRNALASPGSGGDLGEAIREQPEQARLALTLAAAESERFVRQGTGNDEAGAANADVVSLTCPVAAGECAGPADSGDALLERNYPTGAEFLGDGGDVSFSTRGTQNWTVERLLQAHRQLEERGYVFVGYHGTFLEAAQSIVFGGVRARSQDLDAIWRGFYIAGDPALAYGYAQDQEPDARGRIRNGALLRVYVPRSSLPGFYRTSLTLAAPEAAGEVERLIGHPLPLRLDAITGPEEEGGRLETILGWPLAERTVVIPSAIPTDPRNVGGDLDPSSIPDKEQAISALPDYASQPGKPPDYKDDDDKKDEL
EC50: 1.41 nM and 1.25 nM
